Reference: article PMC5244417, “Time-resolved neutron scattering provides new insight into protein substrate processing by a AAA+ unfoldase” (Scientific Reports, 2017)
Several values for one entry are separate records, joined by “and”; a condition that tells them apart may be missing. Identical values can stand only once.

Biological target: the molecule itself
Test: SEC; Superose 6 gel filtration of purified PAN, before heating

B1: PAN (proteasome activating nucleotidase) unfoldase from Methanocaldococcus jannaschii (enzyme, UniProt Q58576 1-430, looked up)
chain: MVFEEFISTELKKEKKAFTEEFKEEKEINDNSNLKNDLLKEELQEKARIAELESRILKLELEKKELERENLQLMKENEILRRELDRMRVPPLIVGTVVDKVGERKVVVKSSTGPSFLVNVSHFVNPDDLAPGKRVCLNQQTLTVVDVLPENKDYRAKAMEVDERPNVRYEDIGGLEKQMQEIREVVELPLKHPELFEKVGIEPPKGILLYGPPGTGKTLLAKAVATETNATFIRVVGSELVKKFIGEGASLVKDIFKLAKEKAPSIIFIDEIDAIAAKRTDALTGGDREVQRTLMQLLAEMDGFDARGDVKIIGATNRPDILDPAILRPGRFDRIIEVPAPDEKGRLEILKIHTRKMNLAEDVNLEEIAKMTEGCVGAELKAICTEAGMNAIRELRDYVTMDDFRKAVEKIMEKKKVKVKEPAHLDVLYR
notes: Purified as a mixture of dodecamers and hexamers; Monodisperse hexamers were obtained after heating at 60 °C with ATP and MgCl2; Perdeuterated PAN (dPAN) was used for the SANS data on PAN; also called MjPAN; PAN complex
With B1 the “stoichiometry N” value was 12 and 6.
